The test system of data set [1] is IXP1, cyclic SGWYGRRH peptide.
Data set [2] relates to GFP-tag (EGFP with the tmRNA peptide tag AANDENYALAA at the C terminus) [GFP: P42212].

Data on two substances can be found in US20090143241.

In the case of “ClpX (E. coli), N-terminally His6-tagged”, in data set [1], the “rate of ClpX ATP hydrolysis” value is given as “The rate of ClpX ATP hydrolysis was not inhibited by IXP1 at concentrations up to 200 µM” and the “rate of ClpX ATP hydrolysis with GFP-tag included” value is on record as “IXP1 still had no effect on ClpX activity”.
As to “ClpXP protease (E. coli ClpX6 with ClpP14)”, the “rate of GFP-tag proteolysis” value in data set [1] is “Inclusion of purified IXP1 reduced the rate of GFP-tag proteolysis”. In addition, in data set [2], the “KM of GFP-tag degradation (ClpXP with SspB)” value is “KM=0.74±0.04”; the “KM of GFP-tag degradation (ClpXP with SspB, no cyclic peptide)” value is reported as “KM=0.74±0.04 µM”; the “kcat of GFP-tag degradation (ClpXP with SspB)” value was “kcat=1.79±0.08 min-1”; the “kcat of GFP-tag degradation (ClpXP with SspB, no cyclic peptide)” value is “kcat=1.79±0.08 min^-1”.
